# Test results reported in the supplement of paper PMC7125110.
# ± gives the standard error. Fewer inactive variants are shown than the library holds.
# B1: glmS ribozyme (parent)
# chain: AUAAAAGCGCCAGAACUACAGAAAUGUAGUUGACGAGGAGGAGGUUUAUCGAAUUUUCGGCGGAUGCCUCCAAA
# Columns and labels:
# Settings in all cases: with glucosamine-6-phosphate
# glucosamine-6-phosphate [1] = variants of: B1; assay: self-cleavage kobs at 40 uM GlcN6P; higher = faster cleavage; RNA array
# Summary of the method: (§1)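 Barcoded ribozyme variants, transcribed in situ by E. coli RNA polymerase on sequenced MiSeq chips, were followed via a hybridised Cy3 probe at 37 °C. Glucosamine-6-phosphate ranged from 40 μM to 10 mM in HEPES/KCl/Mg(OAc)2 buffer. kobs came from decay fits to per-tile medians, and kcat and KM from weighted Michaelis–Menten fits.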
# glucosamine-6-phosphate [2] = variants of: B1; assay: self-cleavage kobs at 640 uM GlcN6P; higher = faster cleavage; RNA array
# Summary of the method: as §1
# glucosamine-6-phosphate [3] = variants of: B1; assay: self-cleavage kobs at 2500 uM GlcN6P; higher = faster cleavage; RNA array
# Summary of the method: as §1
# glucosamine-6-phosphate [4] = variants of: B1; assay: self-cleavage kobs at 10000 uM GlcN6P; higher = faster cleavage; RNA array
# Summary of the method: as §1
# glucosamine-6-phosphate [5] = variants of: B1; assay: self-cleavage kobs at 160 uM GlcN6P; higher = faster cleavage; RNA array
# Summary of the method: as §1
Variant,self-cleavage kobs at 40 uM GlcN6P (glucosamine-6-phosphate [1]) [s⁻¹],self-cleavage kobs at 640 uM GlcN6P (glucosamine-6-phosphate [2]) [s⁻¹],self-cleavage kobs at 2500 uM GlcN6P (glucosamine-6-phosphate [3]) [s⁻¹],self-cleavage kobs at 10000 uM GlcN6P (glucosamine-6-phosphate [4]) [s⁻¹],self-cleavage kobs at 160 uM GlcN6P (glucosamine-6-phosphate [5]) [s⁻¹]
C8A G41U C50G,< 1e-05,,,,
U45A U55C,0.000654 ± 0.00021,0.00526 ± 0.0015,0.00714 ± 0.0029,0.024 ± 0.0085,
G37C A42C,< 1e-05,,< 1e-05,,< 1e-05
C10U G60U C67U,< 1e-05,< 1e-05,,< 1e-05,< 1e-05
C11G G29C U31G G37A C68G,< 1e-05,,,,
G37A G38U C50G C67U,8.1e-05 ± 3.5e-05,,,0.000315 ± 8.1e-05,
A14C U31G A39U,0.000119 ± 2.4e-05,0.0016 ± 0.00039,,0.0112 ± 0.003,
C16G G44U,< 1e-05,,,2.26e-05 ± 1e-05,< 1e-05
G9C C71G,< 1e-05,< 1e-05,< 1e-05,< 1e-05,< 1e-05
A12U A36U G44A,< 1e-05,,,,
A6G G40C,< 1e-05,< 1e-05,,,
C11A A14G A52C G63A,< 1e-05,,,,
G37U U45G U46C G63A C68A,< 1e-05,,,< 1e-05,
G40A G60A,< 1e-05,< 1e-05,,,< 1e-05
U47A U56C C70G,< 1e-05,,,,
A15U A42C C68G,< 1e-05,,,,
G13A A36U A48G C50G C61G,0.000674 ± 0.00026,,,,
C8A C10A C34U G60A,< 1e-05,,,,
C8A C50U C67G,< 1e-05,,,,
G32C G41A A52C,< 1e-05,,< 1e-05,,< 1e-05
C8G A12C A15G U30G G38A U46C,< 1e-05,,,< 1e-05,
A15G A39C C61U G63C C68G,< 1e-05,< 1e-05,,,
C10G A42C U47A G59U,< 1e-05,,,,
G44U U45C,< 1e-05,,,,
A14U U69C,0.000126 ± 2.3e-05,0.000362 ± 4.8e-05,0.000501 ± 0.00015,0.00132 ± 0.00026,0.000147 ± 2.2e-05
G38U A48G G51U,< 1e-05,,,< 1e-05,
A6G C8G C10G A52U G60A,< 1e-05,,,,
G21A,0.00134 ± 0.00021,0.00836 ± 0.0012,0.00839 ± 0.0024,0.0758 ± 0.037,0.00268 ± 0.00063
C16U A48U G62U,< 1e-05,< 1e-05,,< 1e-05,
